Laboratory results from doi:10.1101/2021.11.23.469700, “Zika virus-specific IgM elicited during pregnancy exhibits ultrapotent neutralization” (bioRxiv, 2021).

B1: DH1017.IgM (antibody, V domains shown)
VH: QVQLQESGPGLVKPSQTLSLTCAVSGGSISSGDSYWSWIRQHPGKGLEWIGSIYYSGSTYYNPSLKSRVTIPIDTSKNQFSLKLSSVTAADTAVYYCARHVGDLRVNDAFDIWGQGTMVTVSS
VL: QSVLTQPPSVSAAPGQKVTISCSGSSSNIGNNFVSWYQRLPGTPPKLLIYDSDKRPSGIPDRFSGSKSGTSATLGITGLQTGDEGDYYCGTWDRSLSVVVFGGGTKLTVL
notes: also called mAb DH1017.IgM; copies: 10 + 10
B2: DH1017.Fab (Fab, V domains shown)
VH: B1 VH
VL: B1 VL
notes: also called DH1017 Fab fragment; Fab DH1017; source: Expi 293i cells, co-transfected heavy and light chain plasmids, purified (LambdaFabSelect agarose beads)
B3: DH1017.IgG (antibody, V domains shown)
VH: B1 VH
VL: B1 VL
notes: IgG1; also called recombinant DH1017.IgG; IgG1 isoform of DH1017; source: Expi 293i cells, co-transfected heavy and light chain plasmids, purified (Protein A resin)

Assays:
[1] = target: T1, ZIKV H/PF/2013 envelope (E) protein monomer (Zika virus H/PF/2013, UniProt A0A024B7W1, strain); experiment: ELISA; recombinant E protein ELISA: DH1017 mAbs immobilised at 0.5 ug/mL in TBS; his-tagged recombinant E protein in 2-fold dilutions from 20 ug/mL, 1 hour at 37°C; anti-his HRP; OD450; details: both partners purified
T1 construct: also called ZIKV E monomer

[2] = target: T2, ZIKV H/PF/2013 envelope (E) protein dimer (Zika virus H/PF/2013, UniProt A0A024B7W1, strain); experiment: as above; details: both partners purified
T2 construct: also called ZIKV E dimer; his-tagged recombinant E protein dimer; source: recombinant

[3] = target: DENV3 (Philippines) virion (Dengue virus 3 Philippines (H87/1956 …, UniProt P27915)); experiment: ELISA; virion capture ELISA: virions captured on plates coated with 4G2 antibody; purified mAbs in 5-fold serial dilutions from 100 ug/mL, 1 hour at 37°C; HRP anti-human Ig; OD450; details: one partner purified
[4] = target: DENV2 (New Guinea C) virion (Dengue virus 2 New Guinea C, UniProt P14340, strain); experiment: as above; details: one partner purified
[5] = target: T3, whole Zika PRVABC59 virion (Zika virus PRVABC59, UniProt A0A0X1LH65, strain); experiment: as above; details: one partner purified
T3 construct: also called ZIKV PRVABC59; whole ZIKV virion; source: ZIKV PRVABC59 from BEI, grown in Vero-81 cells, filtered cell supernatant

DENV1 (Hawaii) virion = target: T4, DENV1 (Hawaii) virion (Dengue virus 1 Hawaii (BEI NR-82), UniProt B5AGU1, strain); experiment: as above; details: one partner purified
T4 construct: also called DENV1 (Hawaii NR-82)

DENV4 (H241) virion = DENV4 (H241) virion (Dengue virus 4 H241, UniProt Q58HT7, strain); experiment: as above; details: one partner purified
[6] = target: T2, ZIKV H/PF/2013 envelope (E) protein …; experiment: BLI; Octet Red96, 25°C, PBS pH 7.4; mAb captured on anti-human Ig AR2G tips; ZIKV E protein dimer 50-0.78 ug/mL; fast kinetic components of the heterogeneous ligand model fit; single measurement; details: both partners purified
Centromere B = target: T5, Centromere B (Homo sapiens, UniProt P07199); experiment: ELISA; autoantigen ELISA: purified antigens coated in 0.1M sodium bicarbonate; mAbs in 3-fold serial dilutions from 10 ug/ml, 1 hour at room temperature; HRP anti-human IgG, IgM and H+L; details: both partners purified
T5 construct: source: bought: Prospec, PRO-390

SSB = target: T6, SSB (Bos taurus (assumed), UniProt P10881); experiment: as above; details: both partners purified
T6 construct: source: bought: Immunovision, SSB-3000

Scl-70 = target: T7, Scl-70 (Bos taurus (assumed), UniProt A0AAA9TV68); experiment: as above; details: both partners purified
T7 construct: source: bought: Immunovision, SCL-3000

Jo-1 = Jo-1 (Bos taurus (assumed), UniProt Q2KI84); experiment: as above; details: both partners purified
ZIKV H/PF/2013 virion = target: T8, ZIKV H/PF/2013 virion (Zika virus H/PF/2013, strain); experiment: cryo-EM structure; purified virus and DH1017.Fab incubated on ice for 2 hours; single particle reconstruction with icosahedral symmetry, 4104 particles, 5.3 Å; details: both partners purified
T8 construct: also called ZIKV H/PF/2013 particles; Zika virion; copies: 180 +

T7 sequence (P11387 whole entry): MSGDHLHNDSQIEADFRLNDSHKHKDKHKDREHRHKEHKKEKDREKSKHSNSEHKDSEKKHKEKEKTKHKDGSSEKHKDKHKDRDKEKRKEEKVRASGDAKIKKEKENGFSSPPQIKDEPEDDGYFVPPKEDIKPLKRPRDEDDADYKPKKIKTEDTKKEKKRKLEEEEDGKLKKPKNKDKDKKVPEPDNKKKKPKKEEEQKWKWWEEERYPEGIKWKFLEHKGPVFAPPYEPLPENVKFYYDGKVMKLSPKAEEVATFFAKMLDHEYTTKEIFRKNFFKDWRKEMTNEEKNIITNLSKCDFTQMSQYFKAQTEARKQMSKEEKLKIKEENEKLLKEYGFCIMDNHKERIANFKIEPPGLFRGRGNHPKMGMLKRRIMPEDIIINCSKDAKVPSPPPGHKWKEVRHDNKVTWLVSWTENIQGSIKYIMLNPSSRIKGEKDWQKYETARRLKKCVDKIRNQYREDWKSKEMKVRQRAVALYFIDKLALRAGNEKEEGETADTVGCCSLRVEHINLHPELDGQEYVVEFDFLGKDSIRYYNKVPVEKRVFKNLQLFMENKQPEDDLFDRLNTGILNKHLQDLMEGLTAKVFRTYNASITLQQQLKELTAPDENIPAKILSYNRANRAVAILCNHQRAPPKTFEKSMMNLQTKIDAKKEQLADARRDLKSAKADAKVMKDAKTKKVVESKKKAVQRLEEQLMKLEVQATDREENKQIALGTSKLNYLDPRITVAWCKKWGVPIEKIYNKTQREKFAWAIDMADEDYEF
T5 sequence (P07199 whole entry): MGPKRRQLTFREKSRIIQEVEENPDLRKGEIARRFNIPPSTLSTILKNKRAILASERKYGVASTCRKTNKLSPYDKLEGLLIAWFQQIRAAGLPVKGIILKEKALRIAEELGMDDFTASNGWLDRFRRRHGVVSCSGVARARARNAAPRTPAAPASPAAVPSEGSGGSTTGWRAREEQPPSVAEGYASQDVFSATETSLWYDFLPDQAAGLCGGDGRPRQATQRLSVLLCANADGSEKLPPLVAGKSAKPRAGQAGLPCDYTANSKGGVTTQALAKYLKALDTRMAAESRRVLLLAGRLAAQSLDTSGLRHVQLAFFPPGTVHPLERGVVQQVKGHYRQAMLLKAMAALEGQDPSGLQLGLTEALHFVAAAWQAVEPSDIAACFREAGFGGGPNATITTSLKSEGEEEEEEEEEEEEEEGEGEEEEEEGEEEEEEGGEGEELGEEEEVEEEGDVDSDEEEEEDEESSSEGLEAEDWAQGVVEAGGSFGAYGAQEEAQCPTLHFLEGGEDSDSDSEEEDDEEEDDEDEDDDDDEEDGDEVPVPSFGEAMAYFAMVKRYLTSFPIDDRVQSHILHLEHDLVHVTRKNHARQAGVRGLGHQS
T6 sequence (P05455 whole entry): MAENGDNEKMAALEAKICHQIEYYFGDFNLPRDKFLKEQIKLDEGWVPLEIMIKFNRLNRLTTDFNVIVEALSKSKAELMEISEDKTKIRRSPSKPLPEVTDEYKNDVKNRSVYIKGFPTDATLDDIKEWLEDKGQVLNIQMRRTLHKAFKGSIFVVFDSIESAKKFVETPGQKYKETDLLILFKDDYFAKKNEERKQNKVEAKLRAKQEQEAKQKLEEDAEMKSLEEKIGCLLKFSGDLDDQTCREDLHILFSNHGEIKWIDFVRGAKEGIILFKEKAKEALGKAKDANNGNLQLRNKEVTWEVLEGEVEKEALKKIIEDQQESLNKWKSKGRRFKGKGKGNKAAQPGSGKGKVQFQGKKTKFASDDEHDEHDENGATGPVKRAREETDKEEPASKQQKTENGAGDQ
Sequence of Jo-1 (P12081 whole entry): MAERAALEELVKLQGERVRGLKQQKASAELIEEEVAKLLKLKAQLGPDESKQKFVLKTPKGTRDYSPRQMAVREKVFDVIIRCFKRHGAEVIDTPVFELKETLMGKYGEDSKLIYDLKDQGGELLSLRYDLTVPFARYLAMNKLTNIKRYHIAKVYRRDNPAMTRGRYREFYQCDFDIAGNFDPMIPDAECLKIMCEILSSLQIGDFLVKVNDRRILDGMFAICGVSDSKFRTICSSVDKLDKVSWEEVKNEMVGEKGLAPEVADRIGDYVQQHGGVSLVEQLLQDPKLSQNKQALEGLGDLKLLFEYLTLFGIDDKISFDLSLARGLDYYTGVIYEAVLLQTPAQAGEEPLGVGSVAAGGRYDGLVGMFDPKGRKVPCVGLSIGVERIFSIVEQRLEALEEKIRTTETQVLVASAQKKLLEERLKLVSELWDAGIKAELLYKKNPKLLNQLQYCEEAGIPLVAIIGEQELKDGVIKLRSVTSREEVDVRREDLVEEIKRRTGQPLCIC

Row | Binder | EC50 [1] [nM] | EC50 [2] [nM] | binding result [3] | binding result [4] | EC50 [5] [nM] | binding result (DENV1 (Hawaii) virion) | binding result (DENV4 (H241) virion) | Kd [6] [nM] | koff [6] [s⁻¹] | binding result (Centromere B) | binding result (SSB) | binding result (Scl-70) | binding result (Jo-1) | stoichiometry N (ZIKV H/PF/2013 virion) [Fab per asymmetric unit]
1 | B1 | 0.202 | 0.091 | no binding (tested: 100 ug/mL (start of the dilution series)) | no binding (tested: 100 ug/mL (start of the dilution series)) | 0.022 | no binding (tested: 100 ug/mL (start of the dilution series)) | no binding (tested: 100 ug/mL (start of the dilution series)) | 106 | 0.0103 | no binding (tested: 10 ug/ml (start of the dilution series)) | no binding (tested: 10 ug/ml (start of the dilution series)) | no binding (tested: 10 ug/ml (start of the dilution series)) | no binding (tested: 10 ug/ml (start of the dilution series)) | 
2 | B2 | 1.24 | 25.1 |  |  |  |  |  |  |  | no binding (tested: 10 ug/ml (start of the dilution series)) | no binding (tested: 10 ug/ml (start of the dilution series)) | no binding (tested: 10 ug/ml (start of the dilution series)) | no binding (tested: 10 ug/ml (start of the dilution series)) | 1.5
3 | B3 | 0.463 | 0.929 |  |  | 0.112 |  |  | 123 | 0.0091 | no binding (tested: 10 ug/ml (start of the dilution series)) | no binding (tested: 10 ug/ml (start of the dilution series)) | no binding (tested: 10 ug/ml (start of the dilution series)) | no binding (tested: 10 ug/ml (start of the dilution series)) | 
